Consider three variants from IntAct's records for PubMed 18854156.

B1: Sporulation initiation inhibitor protein Soj (Bacillus subtilis), P37522 (parent)
chain: MGKIIAITNQKGGVGKTTTSVNLGACLAYIGKRVLLVDIDPQGNATSGLGIEKADVEQCVYDILVDDADVIDIIKATTVENLDVIPATIQLAGAEIELVPTISREVRLKRALEAVKQNYDYIIIDCPPSLGLLTINALTASDSVVIPVQCEYYALEGLSQLLNTVRLVQKHLNTDLMIEGVLLTMLDARTNLGIQVIEEVKKYFRDKVYKTVIPRNVRLSEAPSHGKPIILYDPRSRGAEVYLDLAKEVAANG

In the first test the parent is B1. Particulars: with dnaa_bacsu dnaA.
On to D40A, for which the “effect of a mutation on the interaction” value is “decreasing interaction”.

Variants of B1 are the subject of a further test. Particulars: with dnaa_bacsu dnaA. The source holds these as a separate data set.
As to G12V, the “effect of a mutation on the interaction” value was “increasing interaction”.
Still for that read-out and setting: in the case of K16A it was “increasing interaction”.
